In US20230167455:

T1: EB2 protein (endogenous target of CDKL5 in mouse brain), Q8R001
T1 chain: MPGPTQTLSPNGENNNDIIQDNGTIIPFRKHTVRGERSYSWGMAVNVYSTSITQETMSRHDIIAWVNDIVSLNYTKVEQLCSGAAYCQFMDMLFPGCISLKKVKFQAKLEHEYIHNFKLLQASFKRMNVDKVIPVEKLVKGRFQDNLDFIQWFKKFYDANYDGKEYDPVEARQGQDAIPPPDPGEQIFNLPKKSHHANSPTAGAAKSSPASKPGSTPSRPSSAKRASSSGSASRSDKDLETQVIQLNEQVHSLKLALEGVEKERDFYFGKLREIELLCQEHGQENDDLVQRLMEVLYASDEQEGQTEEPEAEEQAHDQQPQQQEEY

B1: human CDKL5, isoform 3 (protein)
chain: MKIPNIGNVMNKFEILGVVGEGAYGVVLKCRHKETHEIVAIKKFKDSEENEEVKETTLRELKMLRTLKQENIVELKEAFRRRGKLYLVFEYVEKNMLELLEEMPNGVPPEKVKSYIYQLIKAIHWCHKNDIVHRDIKPENLLISHNDVLKLCDFGFARNLSEGNNANYTEYVATRWYRSPELLLGAPYGKSVDMWSVGCILGELSDGQPLFPGESEIDQLFTIQKVLGPLPSEQMKLFYSNPRFHGLRFPAVNHPQSLERRYLGILNSVLLDLMKNLLKLDPADRYLTEQCLNHPTFQTQRLLDRSPSRNQAGKSTALQSHHRSNSKDIQNLSVGLPRADEGLPANESFLNGNLAGASLSPLHTKTYQASSQPGSTSKDLTNNNIPHLLSPKEAKSKTEFDFNIDPKPSEGPGTKYLKSNSRSQQNRHSFMESSQSKAGTLQPNEKQSRHSYIDTIPQSSRSPSYRTKAKSHGALSDSKSVSNLSEARAQIAEPSTSRYFPSSCLDLNSPTSPTPTRHSDTRTLLSPSGRNNRNEGTLDSRRTTTRHSKTMEELKLPEHMDSSHSHSLSAPHESFSYGLGYTSPFSSQQRPHRHSMYVTRDKVRAKGLDGSLSIGQGMAARANSLQLLSPQPGEQLPPEMTVARSSVKETSREGTSSFHTRQKSEGGVYHDPHSDDGTAPKENRHLYNDPVPRRVGSFYRVPSPRPDNSFHENNVSTRVSSLPSESSSGTNHSKRQPAFDPWKSPENISHSEQLKEKEKQGFFRSMKKKKKKSQTVPNSDSPDLLTLQKSIHSASTPSSRPKEWRPEKISDLQTQSQPLKSLRKLLHLSSASNHPASSDPRFQPLTAQQTKNSFSEIRIHPLSQASGGSSNIRQEPAPKGRPALQLPGQMDPGWHVSSVTRSATEGPSYSEQLGAKSGPNGHPYNRTNRSRMPNLNDLKETAL
B2: human CDKL5, isoform 1 (protein)
chain: MKIPNIGNVMNKFEILGVVGEGAYGVVLKCRHKETHEIVAIKKFKDSEENEEVKETTLRELKMLRTLKQENIVELKEAFRRRGKLYLVFEYVEKNMLELLEEMPNGVPPEKVKSYIYQLIKAIHWCHKNDIVHRDIKPENLLISHNDVLKLCDFGFARNLSEGNNANYTEYVATRWYRSPELLLGAPYGKSVDMWSVGCILGELSDGQPLFPGESEIDQLFTIQKVLGPLPSEQMKLFYSNPRFHGLRFPAVNHPQSLERRYLGILNSVLLDLMKNLLKLDPADRYLTEQCLNHPTFQTQRLLDRSPSRSAKRKPYHVESSTLSNRNQAGKSTALQSHHRSNSKDIQNLSVGLPRADEGLPANESFLNGNLAGASLSPLHTKTYQASSQPGSTSKDLTNNNIPHLLSPKEAKSKTEFDFNIDPKPSEGPGTKYLKSNSRSQQNRHSFMESSQSKAGTLQPNEKQSRHSYIDTIPQSSRSPSYRTKAKSHGALSDSKSVSNLSEARAQIAEPSTSRYFPSSCLDLNSPTSPTPTRHSDTRTLLSPSGRNNRNEGTLDSRRTTTRHSKTMEELKLPEHMDSSHSHSLSAPHESFSYGLGYTSPFSSQQRPHRHSMYVTRDKVRAKGLDGSLSIGQGMAARANSLQLLSPQPGEQLPPEMTVARSSVKETSREGTSSFHTRQKSEGGVYHDPHSDDGTAPKENRHLYNDPVPRRVGSFYRVPSPRPDNSFHENNVSTRVSSLPSESSSGTNHSKRQPAFDPWKSPENISHSEQLKEKEKQGFFRSMKKKKKKSQTVPNSDSPDLLTLQKSIHSASTPSSRPKEWRPEKISDLQTQSQPLKSLRKLLHLSSASNHPASSDPRFQPLTAQQTKNSFSEIRIHPLSQASGGSSNIRQEPAPKGRPALQLPGQMDPGWHVSSVTRSATEGPSYSEQLGAKSGPNGHPYNRTNRSRMPNLNDLKETAL
B3: human CDKL5, isoform 4 (protein)
chain: MKIPNIGNVMNKFEILGVVGEGAYGVVLKCRHKETHEIVAIKKFKDSEENEEVKETTLRELKMLRTLKQENIVELKEAFRRRGKLYLVFEYVEKNMLELLEEMPNGVPPEKVKSYIYQLIKAIHWCHKNDIVHRDIKPENLLISHNDVLKLCDFGFARNLSEGNNANYTEYVATRWYRSPELLLGAPYGKSVDMWSVGCILGELSDGQPLFPGESEIDQLFTIQKVLGPLPSEQMKLFYSNPRFHGLRFPAVNHPQSLERRYLGILNSVLLDLMKNLLKLDPADRYLTEQCLNHPTFQTQRLLDRSPSRNQAGKSTALQSHHRSNSKDIQNLSVGLPRADEGLPANESFLNGNLAGASLSPLHTKTYQASSQPGSTSKDLTNNNIPHLLSPKEAKSKTEFDFNIDPKPSEGPGTKYLKSNSRSQQNRHSFMESSQSKAGTLQPNEKQSRHSYIDTIPQSSRSPSYRTKAKSHGALSDSKSVSNLSEARAQIAEPSTSRYFPSSCLDLNSPTSPTPTRHSDTRTLLSPSGRNNRNEGTLDSRRTTTRHSKTMEELKLPEHMDSSHSHSLSAPHESFSYGLGYTSPFSSQQRPHRHSMYVTRDKVRAKGLDGSLSIGQGMAARANSLQLLSPQPGEQLPPEMTVARSSVKETSREGTSSFHTRQKSEGGVYHDPHSDDGTAPKENRHLYNDPVPRRVGSFYRVPSPRPDNSFHENNVSTRVSSLPSESSSGTNHSKRQPAFDPWKSPENISHSEQLKEKEKQGFFRSMKKKKKKSQTTDSTNGENPSIKKSLFPLFNSKNHLKHSSSLKKLPVVTPPMVPNSDSPDLLTLQKSIHSASTPSSRPKEWRPEKISDLQTQSQPLKSLRKLLHLSSASNHPASSDPRFQPLTAQQTKNSFSEIRIHPLSQASGGSSNIRQEPAPKGRPALQLPGQMDPGWHVSSVTRSATEGPSYSEQLGAKSGPNGHPYNRTNRSRMPNLNDLKETAL
B4: human CDKL5, isoform 2 (protein)
chain: MKIPNIGNVMNKFEILGVVGEGAYGVVLKCRHKETHEIVAIKKFKDSEENEEVKETTLRELKMLRTLKQENIVELKEAFRRRGKLYLVFEYVEKNMLELLEEMPNGVPPEKVKSYIYQLIKAIHWCHKNDIVHRDIKPENLLISHNDVLKLCDFGFARNLSEGNNANYTEYVATRWYRSPELLLGAPYGKSVDMWSVGCILGELSDGQPLFPGESEIDQLFTIQKVLGPLPSEQMKLFYSNPRFHGLRFPAVNHPQSLERRYLGILNSVLLDLMKNLLKLDPADRYLTEQCLNHPTFQTQRLLDRSPSRSAKRKPYHVESSTLSNRNQAGKSTALQSHHRSNSKDIQNLSVGLPRADEGLPANESFLNGNLAGASLSPLHTKTYQASSQPGSTSKDLTNNNIPHLLSPKEAKSKTEFDFNIDPKPSEGPGTKYLKSNSRSQQNRHSFMESSQSKAGTLQPNEKQSRHSYIDTIPQSSRSPSYRTKAKSHGALSDSKSVSNLSEARAQIAEPSTSRYFPSSCLDLNSPTSPTPTRHSDTRTLLSPSGRNNRNEGTLDSRRTTTRHSKTMEELKLPEHMDSSHSHSLSAPHESFSYGLGYTSPFSSQQRPHRHSMYVTRDKVRAKGLDGSLSIGQGMAARANSLQLLSPQPGEQLPPEMTVARSSVKETSREGTSSFHTRQKSEGGVYHDPHSDDGTAPKENRHLYNDPVPRRVGSFYRVPSPRPDNSFHENNVSTRVSSLPSESSSGTNHSKRQPAFDPWKSPENISHSEQLKEKEKQGFFRSMKKKKKKSQTTDSTNGENPSIKKSLFPLFNSKNHLKHSSSLKKLPVVTPPMVPNSDSPDLLTLQKSIHSASTPSSRPKEWRPEKISDLQTQSQPLKSLRKLLHLSSASNHPASSDPRFQPLTAQQTKNSFSEIRIHPLSQASGGSSNIRQEPAPKGRPALQLPGQMDPGWHVSSVTRSATEGPSYSEQLGAKSGPNGHPYNRTNRSRMPNLNDLKETAL

Target: T1, EB2 protein (endogenous target of CDKL5 …)

Protein | EB2 phosphorylation levels (Western blot, Cdkl5-ko mouse brain) | ability to phosphorylate EB2 (mouse brain) | EB2 phosphorylation (Cdkl5(D471fs) mouse brain, 3 months after AAV) | EB2 phosphorylation (Cdkl5(R59X) mouse brain, 3 months after AAV) | kinase activity, blotting for phosphorylated EB2 (Cdkl5-ko mouse brain, 3 months after AAV) | phosphorylation of EB2 (Western blot of mouse brain, pS222EB2)
B1 | by isoforms three or 4 slightly lower compared to isoform 1 | All tested plasmids expressed well in mouse brain, showing minor differences in ability to phosphorylate EB2 (measurement of CDKL5 kinase activity) | – | – | – | –
B2 | – | All tested plasmids expressed well in mouse brain, showing minor differences in ability to phosphorylate EB2 (measurement of CDKL5 kinase activity) | showed robust hCDKL5 protein expression and EB2 phosphorylation 3 months later | showed robust hCDKL5 protein expression and EB2 phosphorylation 3 months later | human CDKL5 showed robust kinase activity when blotting for phosphorylated EB2 protein | CDKL5 was fully active, as determined by its ability to phosphorylate its endogenous target EB2 protein
B3 | by isoforms three or 4 slightly lower compared to isoform 1 | All tested plasmids expressed well in mouse brain, showing minor differences in ability to phosphorylate EB2 (measurement of CDKL5 kinase activity) | – | – | – | –
B4 | EB2 phosphorylation levels generated by isoform 2 were slightly higher | All tested plasmids expressed well in mouse brain, showing minor differences in ability to phosphorylate EB2 (measurement of CDKL5 kinase activity) | – | – | – | –
